Measurements taken from publication PMC3182529 (Cell cycle (Georgetown, Tex.), 2008).

Experiments:
[1] = target: H3S10phG12P (1–20) (UniProt P68431 2-21, G12P, phosphoserine at 10); test: fluorescence polarisation
[2] = target: H3S10phK14acG12P (1–20) (UniProt P68431 2-21, G12P, phosphoserine at 10; acetyl-lysine at 14); test: fluorescence polarisation

B1: 14-3-3ζ (natural protein)
chain: MDKNELVQKAKLAEQAERYDDMAACMKSVTEQGAELSNEERNLLSVAYKNVVGARRSSWRVVSSIEQKTEGAEKKQQMAREYREKIETELRDICNDVLSLLEKFLIPNASQAESKVFYLKMKGDYYRYLAEVAAGDDKKGIVDQSQQAYQEAFEISKKEMQPTHPIRLGLALNFSVFYYEILNSPEKACSLAKTAFDEAIAELDTLSEESYKDSTLIMQLLRDNLTLWTSDTQGDEAEAGEGGEN
In the case of B1, the Kd [1] is reported as 19.9 µM and the Kd [2] is reported as 40 µM.
